Results on three molecules are retold here after PMC12828377, “HDAC6-mediated PFKL deacetylation enhances aerobic glycolysis and promotes VSMC proliferation” (The Journal of Biological Chemistry, 2025).

Holding throughout (assay): cross-linking; VSMC lysate (700 ug protein in NP40 buffer) fixed with 0.1% glutaraldehyde on ice for 10 min, then Western blot; cells with or without PDGF-BB (10 ng/ml, different durations), TSA or NAM, or transduced with Ad-PFKL WT/K563Q/K563R
One data set concerns the target HA-PFKL K563R (UniProt P17858).
The next data set deals with HA-PFKL WT (UniProt P17858).
Data set [1] concerns the molecule itself.

By stoichiometry N is commonly meant a count of units in the complex or per binding partner. With “HA-PFKL K563R (from UniProt P17858 1-780) (enzyme)”, the stoichiometry N with HA-PFKL K563R came to 4.
“HA-PFKL WT (from UniProt P17858 1-780) (enzyme)” displayed a stoichiometry N with HA-PFKL WT of 4.

B1: phosphofructokinase, liver type (PFKL) (enzyme, rat (endogenous in primary rat VSMCs), UniProt P30835 1-780, looked up)
chain: MATVDLEKLRMSGAGKAIGVLTSGGDAQGMNAAVRAVTRMGIYVGAKVFLIYEGYEGLVEGGENIKPANWLSVSNIIQLGGTIIGSARCKAFTTREGRLAAAYNLLQHGITNLCVIGGDGSLTGANIFRNEWGSLLEELVKEGKISESTAQNYAHLSIAGLVGSIDNDFCGTDMTIGTDSALHRIMEVIDAITTTAQSHQRTFVLEVMGRHCGYLALVSALASGADWLFIPEAPPEDGWENFMCERLGETRSRGSRLNIIIIAEGAIDRHGKPISSSYVKDLVVQRLGFDTRVTVLGHVQRGGTPSAFDRVLSSKMGMEAVMALLEATPDTPACVVSLSGNQSVRLPLMECVQVTKDVQKAMDEKRFDEAIQLRGRSFENNWKIYKLLAHQKVSKEKSNFSLAILNVGAPAAGMNAAVRSAVRTGISEGHTVYVVHDGFEGLAKGQVQEVGWHDVAGWLGRGGSMLGTKRTLPKPHLEAIVENLRTYNIHALLVIGGFEAYEGVLQLVEARGRYEELCIVMCVIPATISNNVPGTDFSLGSDTAVNAAMESCDRIKQSASGTKRRVFIVETMGGYCGYLATVTGIAVGADAAYVFEDPFNIHDLKANVEHMTEKMKTDIQRGLVLRNEKCHEHYTTEFLYNLYSSEGRGVFDCRTNVLGHLQQGGAPTPFDRNYGTKLGVKAMLWMSEKLRDVYRKGRVFANAPDSACVIGLRKKVVAFSSVTELKKETDFEHRMPREQWWLNLRLMLKMLAHYRISMADYVSGELEHVTRRTLSIDKGF
notes: phosphofructokinase, liver type (PFKL), endogenous in primary VSMCs from the thoracic aorta of Sprague-Dawley rats; Acetylation level of the endogenous protein changes with PDGF-BB, TSA or NAM; sites on the endogenous protein were not mapped directly; also called endogenous PFKL; PFK1 liver isoform; source: endogenous, primary rat VSMC lysate (NP-40 buffer) or fixed VSMCs
For B1, in data set [1], the “stoichiometry N” value amounted to 4.
